In a protein production outcome set (Wang et al. 2014):

Assay: label from the status in PepcDB records

Row | Sequence | protein production
1 | MTMYADLVLHGGSIATLDDKLEQAQAVAIAAGRIIAVGSDAHCLALAGPGTRRIGLGGACVMPGINDSHCHPDGQAVKAGRWDDVSQVATQQALLARIADFHRRMPAGAWYLGFRFDDTHSGGYPARQALEQAAPGRPVFLLRRDAQVGLASAPALAALLASGLATQVPPHCLDAATGLARGRGVFAFTTHIAAADSLDDYLEGFPTLFAEMGRMGITSVHNALTSALAVQAYRALHGAGRLPVRVGMMLNGRDQRLVDETLAAGLRFGAGDDRLYLLGVEYGSDGSTSGRTAAYYQPYVGEEGGDGRPANRGDVNFSAEDLAAKVGRVMAAGLQAAATGNGDRGIDFALDAFEQGLRAHPGAVPPRIEHCCCAPPAIQQRMAALGVIDSSAAGFAYNLGDAYLRNRPSAEMAWMWPHRDMLDRGVLVCAHSDAPVCERNPFLGMWSMVTRKTASGASLGAGQAITPLEAMRCYTANPARAEGQAARKGTLSPGKLADLIVLDRDPCAVDPDEIRHTQVLATLVGGQATYRAAGAPSWADELPMRE | failed
2 | MTNAMELYQMLPKTNCKKCGKTSCMAFAVALMARELTPEDCPPLKEEPKYKESYEKLSEIFKPSEGATETGLIVHEDLCFGCGNCVVACPPNVANDPYGVGSGKAPTNPGRLVLTVEDGVVKAQNLGECRRFGKNKILCNGCIVTCPVEAIEFV | failed
3 | MTNFNIDFYAPAKEQRASTHSVMGLSSVPHPSPLFLETPYSELWSRHFGSAVVSLSVTADLAMLAVACKNRQLTVLSRDGELHWSHRLDDDITATAIASNHHVAVGTQQASDGAVAVYLFDADGRELFRTSLKSAVSSLTHSSNGEHLVIQCKNQAWYIASRVADTYQLSQANAEDVAQSKRNDALLAVKDRLLSEPNLYPHAASVAVSLEGTAAIGSLDGKIHLIDCQGKPLWSRQVDGEVWTLGISENGAIIASGCTDGTVKLLANHAHDAYNQYIHALQHSAERLKNTAEQQQAVSEILASLSQTGLAVYAVNWLQEGTLQLAPDALDEIVIKLLSEQVQRFPKHYASHFILAQTYQRRQEWHQAARHFTWAGQNERMKLKSFTLAAESFQKAGLPFAAKSAYRRARELTVTEEAKKTLYTLGRIHEEQGSITDAQKYYEVVFTLNPDYLDVCARLQNLNSPPATLTSRAVPENKDWYASLIRELLSPVSQHGFDLARQDNPAHSRTARLTSVAEHRKRLLSIVSEFSLDSVDNTADARLGYDVAAYMRYDCSVPEDEAKKSLELVNMLDCIKHYGPFSKSLDIGAATGRYPTLLAQQGIQAFGVDLEPMAVEFARKKSNGALNPQFHQGDARDLPFESTQFDLVTCMMGTAAHFPRQDVPTVMSEIHRCLVPGGFCVISTWDIECPHLTYLSIYSHEQKELMRQNAISRADVSEIAIAQGFVVEEIRGVGLLPESLGYELDLQQDGPERIRNLLDMDLAFQAKFPDLHGQMYMLIIRKI | failed
4 | MTNFQRARSEEQRAVRRQAILDTTAAMLEEMPVGEVSLNELSRRVGLAKSNVLRYFESREAILLELLDRAWQQWVADLPALVHAGVDQGAPVSRRAEQFAAVIAASLAGRQVLCDLLSAQAGVLEHNVSPQVAARYKRAAVANVADIAALAHQHLPELGASAPQLTAVMIMAVGAVWTHARPSPAMLSAYEADPSLTAFKLDFVTTLQEMLATLTAGTIARESA | not failed
5 | MTNHNNSGKKKVAILIEQAVEDTEFIIPCNGLKQAGFEVVVLGSRMNEKYKGKRGRLSTQADGTTTEAIASEFDAVVIPGGMAPDKMRRNPNTVRFVQEAMEQGKLVAAVCHGPQVLIEGDLLRGKQATGFIAISKDMMNAGADYLDEALVVDGNLITSREPGDLAIFTTAILSRLGYGGKDAALPDEKDRNAEWWKLADAWGGSTKGDIVRGLNTALGGERYSLEALEKYTEKESDVEAKALFQEMITNKQRHIEYLETYLTRLGEKPSLSANIANQYAKVKTALTGSDDIYQIRSALGDIQTGIGDIGNLCAMYTDPIATAIFKEIYKDLVKYEQRLVSLYRTRTNATVQPPKPTTGAAVSM | not failed
6 | MTNIIKIRASVFIPMSWTEAKMDMETGQVIQFEGDSREFTPHAVNTMRSRVEQEVVVDFYKQEVFSYANTGITTEKVISPDGSVNKRTGKASTENIVCTDIVWNSGGVQFKMSASASNPLNVYAPPVDYVLNVCVKKDGSIDVQGEHDGFPCFEFYKQVDFGPFEKIYTHDFRETGDTAAALGGNMDYSFTKRL | not failed
